Source: patent US20220381787A1, “NOVEL LOX-1 ANTIBODY COMPOSITIONS, LOX1 NEUTRALIZATION ASSAY AND METHODS OF TREATMENT USING SAME” (The Wistar Institute of Anatomy and Biology, priority 2019, published 2022)

B1: 12E4: mouse monoclonal anti-human LOX-1 antibody, VH SEQ ID NO: 15, VL SEQ ID NO: 17 (antibody, V domains shown)
VH: MGWSWIFLFLLSGTAGVHSEVQLQQSGPELVKPGASMKISCKASGYSFTGYTMNWVKQSHGKNLEWIGLINPYNGGTSYNQKFKGKATLTVDKSSSTAYMELLSLTSEDSAVYYCARGGFYAMDYWGQGTSVTVSS
VL: MSSAQFLGLLLLCFQGTRCDIQMTQTTSSLSASLGDRVTISCSASQGISNYLNWYQQKPDGTVKLLIYYTSSLHSGVPSRFSGSGSGTDYSLTISNLEPEDIATYYCQQYSKLPYTFGGGTKLEIK
modifications: Amino acid sequence of variable region of the 12E4 heavy chain.; (1)..(19) signal; (20)..(49) FR1; (50)..(54) CDR1; (55)..(68) FR2; (69)..(85) CDR2; (86)..(117) FR3; (118)..(125) CDR3; (126)..(136) FR4; Amino acid sequence of variable region of the 12E4 light chain.; (20)..(42) FR1; (43)..(53) CDR1; (54)..(68) FR2; (69)..(75) CDR2; (76)..(107) FR3; (108)..(116) CDR3; (117)..(126) FR4
B2: 3D8: mouse monoclonal anti-human LOX-1 antibody, VH SEQ ID NO: 25, VL SEQ ID NO: 27 (antibody, V domains shown)
VH: MEWSWIFLFLLSGTAGVHSEVQLQQSGPELVKPGASVKMSCKASGYTFTSYVMHWVKQKPGQGLEWIGYINPYNDGTKYNEKFKGKATLTSDKSSSTAYMELSSLTSEDSAVYYCARGVYDGYPDYWGQGTTLTVSS
VL: MVSTSQLLGLLLFWTSASRCDIVMTQSPATLSVTPGDRVSLSCRASQSISDYLHWYQQKSHESPRLLIKYASQSISGIPSRFSGSGSGSDFTLSINSVEPEDVGVYYCQNGHSFPYTFGGGTKLEIK
modifications: Amino acid sequence of variable region of the 3D8 heavy chain.; (1)..(19) Signal; (20)..(49) FR1; (50)..(54) C DR1; (55)..(68) FR2; (69)..(85) CDR2; (86)..(117) FR3; (118)..(126) CDR3; (127)..(137) FR4; Amino acid sequence of variable region of the 3D8 light chain.; (1)..(20) signal; (21)..(43) FR1; (44)..(54) CDR1; (55)..(69) FR2; (70)..(76) CDR2; (77)..(108) FR3; (109)..(117) CDR3; (118)..(127) FR4
B3: anti-Lox1 (IgG1) (6A10): recombinant antibody, clone 6A10 sequence in IgG1 framework, expressed in Expi293F cells (antibody, V domains shown)
VH: EVQLQQSGPELVKPGASVKISCKASGYSFTGYYMHWVKQSHVKSLEWIGRINPYNGATSYNQNFKDKASLTVDKSSSTAYMELHSLTSEDSAVYYCAPDVAYWGQGTLVTVSA
VL: DIKMTQSPSSMYASLGERVTITCKASQDINSYLSWFQQKPGKSPKTLIYRANRLVDGVPSRFSGSGSGQDYSLTISSLEYEDMGIYYCLQYDEFPPWTFGGGTKLEIK
B4: 12D9: mouse monoclonal anti-human LOX-1 antibody, VH SEQ ID NO: 11, VL SEQ ID NO: 13 (antibody, V domains shown)
VH: MAWVWTLLFLMAAAQSAQAQIQLVQSGPELKKPGETVKISCKASGYTFTNYGMNWVKQTPGKGLKWMGWINTYTGEPTYTDDFKGRFAFSLETSASTASLQIINLKNEDTATYFCARGGDFYAMDYWGQGTSVTVSS
VL: MESQTLVFISILLWLYGADGNIVMTQSPKSMSMSVGERVTLSCKASENVGTYVSWYQQKPEQSPKLVIFGASNRNTGVPDRFTGSGFATDFTLTISSVQAEDLGDYHCGQSSNYPYTFGGGTKLEIK
modifications: Amino acid sequence of variable region of the 12D9 heavy chain.; (1)..(19) signal; (20)..(49) FR1; (50)..(54) CDR1; (55)..(68) FR2; (86)..(117) FR3; (118)..(126) CDR3; (127)..(137) FR4; Amino acid sequence of variable region of the 12D9 light chain.; (1)..(20) signal; (21)..(43) FR1; (44)..(54) CDR1; (55)..(69) FR2; (70)..(76) CDR2; (77)..(108) FR3; (109)..(117) CDR3; (118)..(127) FR4
B5: 6A10: mouse monoclonal anti-human LOX-1 antibody, VH SEQ ID NO: 3, VL SEQ ID NO: 5 (antibody, V domains shown)
VH: MGWSWIFLFLLSGTAGVLSEVQLQQSGPELVKPGASVKISCKASGYSFTGYYMHWVKQSHVKSLEWIGRINPYNGATSYNQNFKDKASLTVDKSSSTAYMELHSLTSEDSAVYYCAPDVAYWGQGTLVTVSA
VL: MRTPAQFLGILLLWFPGIKCDIKMTQSPSSMYASLGERVTITCKASQDINSYLSWFQQKPGKSPKTLIYRANRLVDGVPSRFSGSGSGQDYSLTISSLEYEDMGIYYCLQYDEFPPWTFGGGTKLEIK
modifications: Amino acid sequence of variable region of the 6A10 heavy chain.; SIGNAL (1)..(19) signal seqeunce; (20)..(49) FR1; (50)..(54) CDR1; (55)..(68) FR2; (69)..(85) CDR2; (86)..(117) FR3; (118)..(121) CDR3; (122)..(132) FR4; Amino acid sequence of variable region of the 6A10 light chain.; SIGNAL (1)..(20) signal seqeunce; (21)..(43) FR1; (44)..(54) CDR1; (55)..(69) FR2; (70)..(76) CDR2; (77)..(108) FR3; (109)..(118) CDR3; (119)..(128) FR4

Assays:
[1] = molecular target: T1, recombinant human LOX-1 protein (Homo sapiens, UniProt P78380); experiment: IgG avidity test, modified ELISA with 4M urea washes; format: binding; details: for strength of binding to hLOX-1 recombinant protein: 4M urea washes, rank order 6A10=12D9>12E4>4D6; for avidity: 4M urea ELISA
T1 construct: The hLOX1 immunogen was cloned into pET30a Escherichia coli expression vector and produced; His tag; made in house; host or cells: Escherichia coli (pET30a)
Protocol: Anti-hLOX-1 mAbs samples were tested for anti-hLOX-1-specific binding to recombinant antigen using a modified ELISA and avidity determined by 4M urea washes against recombinant human LOX-1 protein.
Anti-LOX-1 mAbs samples were tested for anti-LOX-1-specific binding to recombinant antigen using a modified ELISA and avidity determined by 4M urea washes against recombinant human LOX-1 protein. […] Overall out of 16 clones identified, 6 were stronger binders, and 4 were high binders in rank order of strength of binding 6A 10=12D9>12E4>4D6.
Microtiter plates previously coated with recombinant Lox-1 antigens were washed 3 times with PBS plus 0.05% tween 20 (PBST). Hybridomas 1B6, 2A10, 3D8, 3E6, 4D6, 5C2, 5F5, 6A10, 8E7, 9E12, 10H11, 11A6, 12D9, 11C5, 12A10, 12E4, 14A12, and 12G6 samples were diluted as indicated and added (100 μl/well). The avidity of antibodies against hLOX-1 protein was determined by a particle disruption ELISA using 4M Urea. The binding of hLOX1 protein and incubation with mAbs were performed followed by a 5-minute incubation with urea after washing five times with 0.05% PBST. Control (urea-untreated) wells were treated with PBS during the 5-minute incubation. The anti-human IgG conjugated with horseradish peroxidase (HRP) was added with the dilution of 1/5000 in PBS for 1 hour. Afterwards, the plate is washed 5 times, and 100 μl of 3,3′5,5′-Tetramethylbenzidine (TMB) Substrate (Sigma-Aldrich, USA) is added to each well for 10 minutes before the reaction being stopped with 2M H2SO4 solution. The plate is read at 450 nm by Biotek ELISA plate reader.

[2] = molecular target: T2, recombinant full length hLOX1 protein (Homo sapiens, UniProt P78380); experiment: Western blot against native and denatured full-length recombinant hLOX1; format: binding; details: for binding to denatured LOX-1: denatured condition; for binding to native LOX-1: native condition
T2 construct: The hLOX1 immunogen was cloned into pET30a Escherichia coli expression vector and produced; His tag; made in house; host or cells: Escherichia coli (pET30a)
Source text: FIGS. 5A and 5B provide a series of gels showing the binding and specificity of anti-LOX-1 mAbs to target protein analyzed by Western blot analysis. In each figure, the first row of gels was loaded with denatured LOX-1, while the second row of gels was loaded with native LOX-1, as indicated in Example. The clone numbers of the anti-LOX-1 antibodies are listed below the gels.
Immunological reactivity of hLox-1 antibodies was characterized by Western blot analysis against native and denatured full-length recombinant proteins. Protein samples were electrophoretically separated under native or denaturing conditions on SDS-PAGE, performed using Novex gels with reagents as followed: 4-10% mini-gel, 10× Native-PAGE running buffer and 2× Native-PAGE: sample buffer. Denatured protein was heated in a heat block for 10 minutes at 57° C. Two micrograms (2 μg) of recombinant full length hLOX1 protein or non-specific POWV-Env viral protein was loaded to each well along with a protein size marker as a ladder. Gels were run at 150 V for 1 hour in a running buffer. Protein was transferred to a nitrocellulose membrane using the iBlot 2 Gel Transfer Device (Life Technologies). Membranes were blocked in Odyssey blocking buffer (Licor) for 1 hour at room temperature. Indicated hybridomas were diluted 1:250 in 0.5× Odyssey blocking buffer with 0.1% Tween-20 (BioRad) and incubated with the membranes overnight at 4° C. Membranes were washed and then incubated with the appropriate secondary antibody (goat anti-mouse IRDye680RD) for hybridoma samples for 1 hour at room temperature. After washing with PBST 5 times, membranes were imaged on the Odyssey infrared imager.

[3] = molecular target: T3, LOX-1 antigen present on the cell surface of 293T cells (Homo sapiens, UniProt P78380); experiment: flow cytometry on hLOX-1 plasmid transfected 293T cells; format: cell-based; details: 1 μg/ml antibody
T3 construct: expressed in transfected cells; host or cells: 293T cells
Protocol: (§1) FIG. 8A is a flow cytometric histogram showing fluorescent intensity of cells incubated with recombinantly expressed anti-LOX-1 (IgG1) on the plasmid hLOX-1 transfected cells. Anti-hLOX-1/DNA transfected cells were stained with 1 μg/ml of anti-Lox1 (IgG1) (6A10) antibody plus FITC-labelled goat anti-human IgG secondary antibody. […] FIG. 8B show flow cytometry analysis of PBMCs from whole blood. Flow cytometry analysis of anti-hLOX-1 binding to CD11c^+, CD14^+, CD19^+ and CD3^+ cells in PBMCs from healthy donors. Flow cytometric analyses of anti-CD3, CD4, CD14, CD19 and anti-Lox1 monoclonal antibodies were used to detect their lineage specificity.

[4] = system: CD11c+, CD14+, CD19+ and CD3+ cells in PBMCs; experiment: flow cytometry of PBMCs from healthy donors; format: cell-based, human
Protocol: as §1

Row | Molecule | strength of binding to hLOX-1 recombinant protein [1] | binding to denatured LOX-1 [2] | binding to native LOX-1 [2] | binding to non-transfected cells [3] | binding to hLOX-1 transfected cells ([3]; FITC-labelled goat anti-human IgG secondary) | binding to CD3+ cells in PBMCs [4] | binding to immune subset cells in PBMCs ([4]; CD11c+, CD14+, CD19+ cells) | avidity [1]
1 | B1 | high binders | not denatured LOX-1 (or binding to denatured LOX-1 at a significantly lower level) | demonstrate binding to native LOX-1 |  |  |  |  | 
2 | B2 |  | not denatured LOX-1 (or binding to denatured LOX-1 at a significantly lower level) | demonstrate binding to native LOX-1 |  |  |  |  | 
3 | B3 |  |  |  | no binding above background to non-transfected cells | Specific binding to cells transfected with LOX-1 antigen | not to CD3^+ cells | binds to immune subset cells | 
4 | B4 | high binders | not denatured LOX-1 (or binding to denatured LOX-1 at a significantly lower level) | demonstrate binding to native LOX-1 |  |  |  |  | strong avidity
5 | B5 | high binders | not denatured LOX-1 (or binding to denatured LOX-1 at a significantly lower level) | demonstrate binding to native LOX-1 |  |  |  |  | strong avidity
